Assay results taken from patent publication US20230272029A1, “CO-AGONISTS AT GLP-1 AND GIP RECEPTORS SUITABLE FOR ORAL DELIVERY” (Novo Nordisk A/S, priority 2020, published 2023).
Starred links: 1 amine or outer side, 2 acyl side, 3 side chain; linkers in the order of their positions; H or OH if unused. Non-standard residues stand in square brackets, D forms with d. Residues, ends and D or L forms follow the SMILES beside them. Groups on a side chain read outwards from the residue. No end group written: not given here. *: point of attachment. C20 diacid = O=C(O)CCCCCCCCCCCCCCCCCCC(=O)*; C18 diacid = O=C(O)CCCCCCCCCCCCCCCCC(=O)*; γGlu = O=C(O)[C@H](CCC(=O)[*:2])N[*:1]; εLys = N[C@@H](CCCCN[*:1])C(=O)[*:2]; AEEA = NCCOCCOCC(=O)O; Aib = CC(C)(N)C(=O)O

T1: human GIP receptor (human, UniProt P48546 22-466)
T1 sequence (looked up): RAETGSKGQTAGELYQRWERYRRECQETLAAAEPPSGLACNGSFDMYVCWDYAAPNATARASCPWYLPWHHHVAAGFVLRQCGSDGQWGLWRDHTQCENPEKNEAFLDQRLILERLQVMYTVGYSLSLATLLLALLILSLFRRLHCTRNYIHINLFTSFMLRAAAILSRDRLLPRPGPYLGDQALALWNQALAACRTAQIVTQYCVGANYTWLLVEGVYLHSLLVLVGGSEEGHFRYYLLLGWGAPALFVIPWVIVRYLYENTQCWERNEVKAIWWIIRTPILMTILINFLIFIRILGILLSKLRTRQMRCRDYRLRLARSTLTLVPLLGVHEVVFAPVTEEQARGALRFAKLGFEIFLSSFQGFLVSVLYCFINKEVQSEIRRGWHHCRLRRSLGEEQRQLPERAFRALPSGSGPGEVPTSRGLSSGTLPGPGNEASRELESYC

B1: Compound No. 16 (peptide)
peptide: Y[Aib]EGTFTSDYSIYLEK([εLys-εLys-γGlu-C20 diacid])QAAREFINWLLAGGPSSGAPPPS-OH
modifications: N-terminus assumed
SMILES: CC[C@H](C)[C@H](NC(=O)[C@H](Cc1ccccc1)NC(=O)[C@H](CCC(=O)O)NC(=O)[C@H](CCCNC(=N)N)NC(=O)[C@H](C)NC(=O)[C@H](C)NC(=O)[C@H](CCC(N)=O)NC(=O)[C@H](CCCCNC(=O)[C@@H](N)CCCCNC(=O)[C@@H](N)CCCCNC(=O)CC[C@H](NC(=O)CCCCCCCCCCCCCCCCCCC(=O)O)C(=O)O)NC(=O)[C@H](CCC(=O)O)NC(=O)[C@H](CC(C)C)NC(=O)[C@H](Cc1ccc(O)cc1)NC(=O)[C@@H](NC(=O)[C@H](CO)NC(=O)[C@H](Cc1ccc(O)cc1)NC(=O)[C@H](CC(=O)O)NC(=O)[C@H](CO)NC(=O)[C@@H](NC(=O)[C@H](Cc1ccccc1)NC(=O)[C@@H](NC(=O)CNC(=O)[C@H](CCC(=O)O)NC(=O)C(C)(C)NC(=O)[C@@H](N)Cc1ccc(O)cc1)[C@@H](C)O)[C@@H](C)O)[C@@H](C)CC)C(=O)N[C@@H](CC(N)=O)C(=O)N[C@@H](Cc1c[nH]c2ccccc12)C(=O)N[C@@H](CC(C)C)C(=O)N[C@@H](CC(C)C)C(=O)N[C@@H](C)C(=O)NCC(=O)NCC(=O)N1CCC[C@H]1C(=O)N[C@@H](CO)C(=O)N[C@@H](CO)C(=O)NCC(=O)N[C@@H](C)C(=O)N1CCC[C@H]1C(=O)N1CCC[C@H]1C(=O)N1CCC[C@H]1C(=O)N[C@@H](CO)C(=O)O
B2: Compound No. 17 (peptide)
peptide: YAEGTFTSDYSIYLEK([εLys-εLys-γGlu-C18 diacid])QAAREFINWLLAGGPSSGAPPPS-OH
modifications: N-terminus assumed
SMILES: CC[C@H](C)[C@H](NC(=O)[C@H](Cc1ccccc1)NC(=O)[C@H](CCC(=O)O)NC(=O)[C@H](CCCNC(=N)N)NC(=O)[C@H](C)NC(=O)[C@H](C)NC(=O)[C@H](CCC(N)=O)NC(=O)[C@H](CCCCNC(=O)[C@@H](N)CCCCNC(=O)[C@@H](N)CCCCNC(=O)CC[C@H](NC(=O)CCCCCCCCCCCCCCCCC(=O)O)C(=O)O)NC(=O)[C@H](CCC(=O)O)NC(=O)[C@H](CC(C)C)NC(=O)[C@H](Cc1ccc(O)cc1)NC(=O)[C@@H](NC(=O)[C@H](CO)NC(=O)[C@H](Cc1ccc(O)cc1)NC(=O)[C@H](CC(=O)O)NC(=O)[C@H](CO)NC(=O)[C@@H](NC(=O)[C@H](Cc1ccccc1)NC(=O)[C@@H](NC(=O)CNC(=O)[C@H](CCC(=O)O)NC(=O)[C@H](C)NC(=O)[C@@H](N)Cc1ccc(O)cc1)[C@@H](C)O)[C@@H](C)O)[C@@H](C)CC)C(=O)N[C@@H](CC(N)=O)C(=O)N[C@@H](Cc1c[nH]c2ccccc12)C(=O)N[C@@H](CC(C)C)C(=O)N[C@@H](CC(C)C)C(=O)N[C@@H](C)C(=O)NCC(=O)NCC(=O)N1CCC[C@H]1C(=O)N[C@@H](CO)C(=O)N[C@@H](CO)C(=O)NCC(=O)N[C@@H](C)C(=O)N1CCC[C@H]1C(=O)N1CCC[C@H]1C(=O)N1CCC[C@H]1C(=O)N[C@@H](CO)C(=O)O

Tests used:
[1] = Pharmacokinetic study in dogs after oral dosing of tablets with SNAC; assay type: in vivo, Beagle dogs; details: dog, in vivo, po
Protocol: The purpose of this example is to determine the half-life and plasma exposure in vivo of the compounds of the present invention after p.o. administration to beagle dogs, i.e. the terminal half-life and concentration of test substance that reaches circulation with time. This is done in a pharmacokinetic (PK) study, where these parameters of the compound in question are determined. By terminal half-life is generally meant the period of time it takes to halve a certain plasma concentration, measured after the initial distribution phase.
The amount of SNAC in the tablet composition was 100-300 mg, the amount of magnesium stearate in the tablet composition was 7.7 mg, and the target amount of each test substance in the tablet composition was 3-4 mg.
Male beagle dogs, 1-7 years of age and weighing 9-17 kg during the study period, were included in the study. The dogs were dosed in a fasting state. The dogs were group housed in pens (12 hours light: 12 hours dark), and fed individually and restrictedly once daily with Royal Canin Medium Adult dog food (Royal Canin Products, China Branch, or Brogaarden A/S, Denmark). The dogs were used for repeated PK studies with a suitable wash-out period between successive dosing. An appropriate acclimatization period was given prior to initiation of the first PK study. All handling, dosing, and blood sampling of the animals were performed by trained and skilled staff. Before the studies, the dogs were fasted overnight and from 0 to 4 hours after dosing. The dogs were restricted to water 1 hour before dosing until 4 hours after dosing, but otherwise had ad libitum access to water during the whole period.
The compositions were administered by a single oral dosing to the dogs in groups of 6-8 dogs. […] The mouth was then closed, and 10 mL of tap water was given by syringe or gavage to facilitate swallowing of the tablet.
For each blood sample time point, approximately 0.8 mL of whole blood was collected in a 1.5 mL EDTA-coated tube, which was gently turned to mix the sample with EDTA. Blood samples were collected in EDTA buffer (8 mM) and then centrifuged at 4° C. and 2000g for 10 minutes. Plasma was pipetted into Micronic tubes on dry ice, and kept at −20° C. or lower until analysis. Blood samples were taken as appropriate, for example from a venflon in the cephalic vein in the front leg for the first 2 hours and then with syringe from the jugular vein for the rest of the time points. The first few drops were allowed to drain from the venflon to avoid heparin saline from the venflon in the sample.
All blood samples were collected into test tubes containing EDTA for stabilisation and kept on ice until centrifugation. Plasma was separated from whole blood by centrifugation and the plasma was stored at −20° C. or lower until analysis.
The plasma was analysed for test substance using LC-MS (Liquid Chromatography-Mass Spectrometry) as known to the person skilled in the art. […] RP-HPLC separation was achieved using a linear gradient of 1:1 acetonitrile/methanol in 1% aqueous formic acid using either: a Phenomenex Onyx Monolithic C18 column (50×2.0 mm) and a flow rate of 0.8 mL/min at 30° C.; or an Agilent Poroshell 120 SB-C18 column (50×2.1 mm, 2.7 μm) at a flow rate of 0.4 mL/min at 60° C. The mass spectrometer was operated in either positive ionization SIM mode or positive ionization PRM mode.
For each individual animal, a plasma concentration-time profile was analysed by a non-compartmental model in Pharsight Phoenix WinNonLin ver. 6.4 software or other relevant software for PK analysis, and the resulting terminal half-life (t1/2), maximum plasma concentration per dose (Cmax/D), time for maximum plasma concentration (tmax), and area under the curve to infinity per dose (AUC/D) were determined. Summary statistics of pharmacokinetic results were presented as median (for tmax), harmonic mean ([…]), or arithmetic mean (Cmax, AUC).

human GLP-1 receptor = human GLP-1 receptor (human, UniProt P43220 24-463); test: cell-based or functional assay
human GIP receptor = molecular target: T1, human GIP receptor; test: cell-based or functional assay

Molecule	Cmax/Dose [1]	AUC/Dose [1]	hGLP-1R, CRE Luc 0% HSA EC50 (pM) (human GLP-1 receptor)	hGLP-1R, CRE Luc 1% HSA EC50 (pM) (human GLP-1 receptor)	hGIPR, CRE Luc 0% HSA EC50 (pM) (human GIP receptor)	hGIPR, CRE Luc 1% HSA EC50 (pM) (human GIP receptor)
CC[C@H](C)[C@H](NC(=O)[C@H](Cc1ccccc1)NC(=O)[C@H](CCC(=O)O)NC(=O)[C@H](CCCNC(=N)N)NC(=O)[C@H](C)NC(=O)[C@H](C)NC(=O)[C@H](CCC(N)=O)NC(=O)[C@H](CCCCNC(=O)[C@@H](N)CCCCNC(=O)[C@@H](N)CCCCNC(=O)CC[C@H](NC(=O)CCCCCCCCCCCCCCCCC(=O)O)C(=O)O)NC(=O)[C@H](CCC(=O)O)NC(=O)[C@H](CC(C)C)NC(=O)[C@H](Cc1ccc(O)cc1)NC(=O)[C@@H](NC(=O)[C@H](CO)NC(=O)[C@H](Cc1ccc(O)cc1)NC(=O)[C@H](CC(=O)O)NC(=O)[C@H](CO)NC(=O)[C@@H](NC(=O)[C@H](Cc1ccccc1)NC(=O)[C@@H](NC(=O)CNC(=O)[C@H](CCC(=O)O)NC(=O)C(C)(C)NC(=O)[C@@H](N)Cc1ccc(O)cc1)[C@@H](C)O)[C@@H](C)O)[C@@H](C)CC)C(=O)N[C@@H](CCC(=O)O)C(=O)N[C@@H](Cc1c[nH]c2ccccc12)C(=O)N[C@@H](CC(C)C)C(=O)N[C@@H](CC(C)C)C(=O)N[C@@H](C)C(=O)NCC(=O)NCC(=O)N1CCC[C@H]1C(=O)N[C@@H](CO)C(=O)N[C@@H](CO)C(=O)NCC(=O)N[C@@H](C)C(=O)N1CCC[C@H]1C(=O)N1CCC[C@H]1C(=O)N1CCC[C@H]1C(=O)N[C@@H](CO)C(=O)O [Compound No. 9] (H-Y[Aib]EGTFTSDYSIYLEK([εLys-εLys-γGlu-C18 diacid])QAAREFIEWLLAGGPSSGAPPPS-OH)	0.24 kg/L					
CC[C@H](C)[C@H](NC(=O)[C@H](Cc1ccccc1)NC(=O)[C@H](CCC(=O)O)NC(=O)[C@H](CCCNC(=N)N)NC(=O)[C@H](C)NC(=O)[C@H](C)NC(=O)[C@H](CCC(N)=O)NC(=O)[C@H](CCCCNC(=O)COCCOCCNC(=O)COCCOCCNC(=O)CC[C@H](NC(=O)CCCCCCCCCCCCCCCCC(=O)O)C(=O)O)NC(=O)[C@H](CCC(=O)O)NC(=O)[C@H](CC(C)C)NC(=O)[C@H](Cc1ccc(O)cc1)NC(=O)[C@@H](NC(=O)[C@H](CO)NC(=O)[C@H](Cc1ccc(O)cc1)NC(=O)[C@H](CC(=O)O)NC(=O)[C@H](CO)NC(=O)[C@@H](NC(=O)[C@H](Cc1ccccc1)NC(=O)[C@@H](NC(=O)CNC(=O)[C@H](CCC(=O)O)NC(=O)C(C)(C)NC(=O)[C@@H](N)Cc1ccc(O)cc1)[C@@H](C)O)[C@@H](C)O)[C@@H](C)CC)C(=O)N[C@@H](CCC(=O)O)C(=O)N[C@@H](Cc1c[nH]c2ccccc12)C(=O)N[C@@H](CC(C)C)C(=O)N[C@@H](CC(C)C)C(=O)N[C@@H](C)C(=O)NCC(=O)NCC(=O)N1CCC[C@H]1C(=O)N[C@@H](CO)C(=O)N[C@@H](CO)C(=O)NCC(=O)N[C@@H](C)C(=O)N1CCC[C@H]1C(=O)N1CCC[C@H]1C(=O)N1CCC[C@H]1C(=O)N[C@@H](CO)C(=O)O [Compound No. 10] (H-Y[Aib]EGTFTSDYSIYLEK([AEEA-AEEA-γGlu-C18 diacid])QAAREFIEWLLAGGPSSGAPPPS-OH)	0.20 kg/L	8.4 kg·h/L				
B1			3.1 pM	321 pM	13.4 pM	804 pM
B2			5.2 pM	257 pM	34.9 pM	1320 pM
